For one assay, the target named is T1, HA-TAK1 (UniProt Q62073 1-579, limits assumed).
T1 construct: I recall the cited Yamaguchi 1995 clone as mouse TAK1 (Q62073); human TAK1 is O43318; also called HA-tagged TAK1 protein
T1 sequence (looked up): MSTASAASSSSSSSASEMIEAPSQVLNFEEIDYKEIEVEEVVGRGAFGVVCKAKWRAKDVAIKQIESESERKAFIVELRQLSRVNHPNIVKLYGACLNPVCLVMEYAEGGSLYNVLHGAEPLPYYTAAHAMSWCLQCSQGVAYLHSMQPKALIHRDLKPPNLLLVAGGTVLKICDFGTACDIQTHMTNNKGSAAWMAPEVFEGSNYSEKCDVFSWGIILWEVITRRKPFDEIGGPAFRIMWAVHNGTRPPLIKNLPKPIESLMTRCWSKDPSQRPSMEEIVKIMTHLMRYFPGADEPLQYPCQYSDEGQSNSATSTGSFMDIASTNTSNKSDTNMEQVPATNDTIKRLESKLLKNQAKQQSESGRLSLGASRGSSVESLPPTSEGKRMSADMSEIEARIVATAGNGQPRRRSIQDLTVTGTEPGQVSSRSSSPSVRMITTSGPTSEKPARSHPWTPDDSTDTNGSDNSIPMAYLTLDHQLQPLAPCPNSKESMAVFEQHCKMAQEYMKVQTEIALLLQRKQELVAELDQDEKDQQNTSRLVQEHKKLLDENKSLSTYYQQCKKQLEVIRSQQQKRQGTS
Nature of the assay: coimmunoprecipitation from transfected 293 cells: IP anti-T7, immunoblot anti-HA. How it is done:
293 cells were transiently transfected with an expression vector for HA-TAK1 in combination with empty vector (−) or with expression vectors for T7-TAB2-Full length (Full), T7-TAB2C (C), or T7-TAB2N (N) as indicated. Cell extracts were immunoprecipitated (IP) with anti-T7 (7) or mouse IgG (C). Coprecipitated HA-TAK1 was detected by immunoblotting (IB) with anti-HA (upper panel, left). The amounts of immunoprecipitated T7-TAB2 proteins were determined with anti-T7 (lower panel). Whole cell extracts were immunoblotted with anti-HA to determine total amounts of HA-TAK1 (upper panel, right). Schematic representation of various TAB2 constructs is shown in the lower part. The coiled-coil regions are indicated by solid boxes.
(In general: In western blotting, separated proteins are transferred to a membrane and probed.)

The next assay addresses T2, Flag-TRAF6 (UniProt Q9Y4K3 1-522).
T2 construct: The anti-TRAF6C peptide covers amino acids 497 to 522, which fits the 522-residue human protein; also called Flag-tagged TRAF6; 2Flag-TRAF6
T2 sequence (looked up): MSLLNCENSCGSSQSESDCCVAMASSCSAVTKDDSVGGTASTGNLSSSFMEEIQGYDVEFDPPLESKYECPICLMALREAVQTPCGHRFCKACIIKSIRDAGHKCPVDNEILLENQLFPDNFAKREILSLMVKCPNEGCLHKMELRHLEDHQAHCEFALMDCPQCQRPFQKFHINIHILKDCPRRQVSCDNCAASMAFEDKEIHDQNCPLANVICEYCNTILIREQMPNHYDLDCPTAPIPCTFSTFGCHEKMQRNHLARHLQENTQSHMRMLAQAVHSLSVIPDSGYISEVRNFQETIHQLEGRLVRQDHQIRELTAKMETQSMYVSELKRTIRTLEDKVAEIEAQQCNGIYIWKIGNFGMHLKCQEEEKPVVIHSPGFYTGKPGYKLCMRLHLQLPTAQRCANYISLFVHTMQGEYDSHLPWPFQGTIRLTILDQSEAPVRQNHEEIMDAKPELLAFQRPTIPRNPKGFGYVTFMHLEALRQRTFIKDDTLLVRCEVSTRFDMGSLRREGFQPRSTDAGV
Description: coimmunoprecipitation from transfected 293 cells: IP anti-T7, immunoblot anti-Flag. The source says: (A) show an association of TAB2 with […] in mammalian cells. 293 cells were transiently transfected with an expression vector for 2Flag-TRAF6 in combination with empty vector (−) or with expression vectors for T7-TAB2-Full length (Full) (Full), T7-TAB2C (C), or T7-TAB2N (N) as indicated. Cell extracts were immunoprecipitated (IP) with anti-T7 (7) or mouse IgG (C). Coprecipitated Flag-TRAF6 was detected by immunoblotting (IB) with anti-Flag (upper panel, left). The amounts of immunoprecipitated T7-TAB2 proteins were determined with anti-T7 (lower panel). Whole cell extracts were immunoblotted with anti-Flag to determine total amounts of Flag-TRAF6 (upper panel, right).
The present inventors therefore determined whether TAB2 could interact with TRAF6 (FIG. 3A). T7-TAB2 was coexpressed with Flag-tagged TRAF6 in 293 cells and immunoprecipitated with anti-T7 antibody. The immune complexes were subjected to immunoblotting with a monoclonal antibody to Flag. TAB2 efficiently precipitated with TRAF6 (lane 4). To determine which domain of TAB2 is responsible for its TRAF6 association, the inventors tested whether TAB2N or TAB2C is able to bind to TRAF6, using the same experimental procedure. […] Thus, the C-terminal domain of TAB2 is required for TRAF6 binding.

We go through one molecule from patent US20030040050A1 (published 2003).

B1: T7-TAB2N (other)
chain: MASMTGGQQMGMAQGSHQIDFQVLHDLRQKFPEVPEVVVSRCMLQNNNNLDACCAVLSQESTRYLYGEGDLNFSDDSGISGLRNHMTSLNLDLQSQNIYHHGREGSRMNGSRTLTHSISDGQLQGGQSNSELFQQEPQTAPAQVPQGFNVFGMSSSSGASNSAPHLGFHLGSKGTSSLSQQTPRFNPIMVTLAPNIQTGRNTPTSLHIHGVPPPVLNSPQGNSIYIRPYITTPGGTTRQTQQHSGWVSQFNPMNPQQVYQPSQPGPWTTCPASNPLSHTSSQQPNQQGHQTSHVYMPISSPTTSQPPTIHSSGSSQSSAHSQYNIQNISTGPRKNQIEIKLEPPQRNNSSKLRSSGPRTSSTSSSVNSQTLNRNQPTVYIAASPPNTDELMSRSQPKVYISANAATGDEQV
notes: Expressed in 293 cells; also called N (1-400)
For the molecule B1, the binding result with HA-TAK1 and in the assay with Flag-TRAF6 was “no binding” in each case.
